Publication PMC314469, “Protein Interaction Networks by Proteome Peptide Scanning” (PLoS Biology, 2004)

T1: Yfr024 SH3 (LSB3_YEAST), P43603
T1 chain: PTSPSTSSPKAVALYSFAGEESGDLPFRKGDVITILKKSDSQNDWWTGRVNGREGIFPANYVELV

T2: Boi1 SH3 (BOI1_YEAST), P38041
T2 chain: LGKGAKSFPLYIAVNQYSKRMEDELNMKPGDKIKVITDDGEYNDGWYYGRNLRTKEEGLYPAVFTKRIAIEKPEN

T3: Rvs167 SH3 (RV167_YEAST), P39743
T3 chain: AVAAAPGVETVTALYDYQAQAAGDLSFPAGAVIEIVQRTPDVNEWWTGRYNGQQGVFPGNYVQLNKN

T4: Yhr016c SH3 (YSC84_YEAST), P32793
T4 chain: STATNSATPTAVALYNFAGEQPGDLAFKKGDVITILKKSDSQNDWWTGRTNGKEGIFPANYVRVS

T5: Myo5 SH3 (MYO5_YEAST), Q04439
T5 chain: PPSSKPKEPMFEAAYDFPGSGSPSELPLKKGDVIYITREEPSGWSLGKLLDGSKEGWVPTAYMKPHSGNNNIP

T6: Boi2 SH3 (BOI2_YEAST), P39969
T6 chain: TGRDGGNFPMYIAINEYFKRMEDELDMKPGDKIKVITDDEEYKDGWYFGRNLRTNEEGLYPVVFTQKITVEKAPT


What was measured:
Assay in all cases: SPOT array
[1] = biological target: Sho1 SH3 (SHO1_YEAST), P40073
Sho1 SH3 (SHO1_YEAST), P40073, sequence (P40073 295-366): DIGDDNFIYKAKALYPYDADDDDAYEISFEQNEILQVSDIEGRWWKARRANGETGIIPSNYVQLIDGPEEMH

[2] = biological target: T1, Yfr024 SH3 (LSB3_YEAST), P43603
[3] = biological target: T2, Boi1 SH3 (BOI1_YEAST), P38041
[4] = biological target: T3, Rvs167 SH3 (RV167_YEAST), P39743
[5] = biological target: T4, Yhr016c SH3 (YSC84_YEAST), P32793
[6] = biological target: T5, Myo5 SH3 (MYO5_YEAST), Q04439
[7] = biological target: T6, Boi2 SH3 (BOI2_YEAST), P39969

Row | normalised SPOT signal, Boehringer light units (BLU); mean over the file's lines of this peptide [1] | normalised SPOT signal, Boehringer light units (BLU); mean over the file's lines of this peptide [2] | normalised SPOT signal, Boehringer light units (BLU); mean over the file's lines of this peptide [3] | normalised SPOT signal, Boehringer light units (BLU); mean over the file's lines of this peptide [4] | normalised SPOT signal, Boehringer light units (BLU); mean over the file's lines of this peptide [5] | normalised SPOT signal, Boehringer light units (BLU); mean over the file's lines of this peptide [6] | normalised SPOT signal, Boehringer light units (BLU); mean over the file's lines of this peptide [7] | Binder
1 | 953 | 548 | 33700 | 575 | 221 | 264 | 314 | FQDYRSSPWSPSRS [YLR169W 87-100]
2 | 114 | 485 | 73.8 | 436 | 288 | 143 | 111 | FEYSKYRPLTPSSE [YOR001W 401-414]
3 | 4.9 | 173 | 102 | 72.9 | 26.6 | 261 | 1.2 | FLQDRVIPIFPHYP [YMR283C 55-68]
4 | 410 | 146 | 700 | 952 | 72 | 656 | 10.9 | FIKNKAKPLIPIEL [YJL201W 254-267]
5 | 75.1 | 154 | 892 | 99.4 | 29.3 | 99 | 28.9 | FKVYRWNPDEPSAK [YLL041C 36-49]
6 | 39.8 | 379 | 4820 | 148 | 21.1 | 88300 | 19.6 | FQPQRTAPKPPISA [YNL298W 451-464]
7 | 40 | 2210 | 132 | 2290 | 750 | 161 | 190 | FNGDRLVPTLPTVS [YPR095C 191-204]
8 | 30.7 | 70 | 58.8 | 27.1 | 37.5 | 172 | 13.4 | FGSNKNNPVPPELT [YIL125W 149-162]
9 | 44.7 | 1010 | 9160 | 228 | 109 | 1410 | 26 | FRPHRLAPSAPATK [YOL113W 305-318]

Continued, binder first:

Row | Binder | normalised SPOT signal, Boehringer light units (BLU); mean over the file's lines of this peptide [1] | normalised SPOT signal, Boehringer light units (BLU); mean over the file's lines of this peptide [2] | normalised SPOT signal, Boehringer light units (BLU); mean over the file's lines of this peptide [3] | normalised SPOT signal, Boehringer light units (BLU); mean over the file's lines of this peptide [4] | normalised SPOT signal, Boehringer light units (BLU); mean over the file's lines of this peptide [5] | normalised SPOT signal, Boehringer light units (BLU); mean over the file's lines of this peptide [6] | normalised SPOT signal, Boehringer light units (BLU); mean over the file's lines of this peptide [7]
10 | FQYTKGRPLAPKGA [YGL009C 253-266] | 66.9 | 190 | 59.6 | 22.3 | 42.6 | 235 | 14.9
11 | FGTAKILPEEPSNT [YDR490C 268-281] | 183 | 0.1 | 35.5 | 23.2 | 30.3 | 153 | 7.7
12 | FHDPKFIPNKPYRQ [YGR019W 335-348] | 122 | 498 | 518 | 28.7 | 113 | 300 | 16.3
13 | FLHSKKIPEVPQTD [YGR281W 89-102] | 1190 | 15.3 | 37.9 | 15.3 | 25.6 | 288 | 8.2
14 | FLLKKMFPAPPLPT [YDL172C 130-143] | 149 | 132 | 235 | 52.4 | 40.3 | 23700 | 27.9
15 | FFYRRDIPDVPITT [YDR310C 827-840] | 839 | 838 | 15400 | 253 | 362 | 138 | 33.9
16 | FHPEKLTPYTPMTG [YHR204W 260-273] | 25.1 | 45.9 | 95.4 | 12.7 | 42 | 96.5 | 19.5
